One may read the Kd as the equilibrium constant for the complex coming apart. A lower Kd goes with higher affinity. As usually defined, the koff is a measure of how fast the partners let go of each other. Low values mean slow dissociation, high ones fast dissociation. As a reminder, the kon is the rate constant with which the complex forms. Low readings indicate slower complex formation, high ones faster complex formation.

Consider 2 molecules from US20070065447A1 (Novo Nordisk, published 2007).

Bridge positions count the residues as written; N and C are the ends. Ends that are not written are not given here.

In one test the target is T1, BSA (bovine, UniProt P02769).
T1 construct: also called bovine serum albumin
Put plainly: direct ELISA, fusion proteins coated at 100 ng/well, A405 (Example 3, second experiment). As for the experimental part: (§1) The stepwise protocol set forth below was used for the ELISAs, which were performed with biotinylated mAb 4G1, mAb 5D5, and mAb 6C12 (GST, BSA, and plastic used as controls in the first experiment; GST and BSA only in the second experiment) and the γ2 DIII antigens individually (GST-γIII-20 was only tested in the second experiment; nonspecific biotinylated Ig was used as a control for the antibodies in both experiments). All incubations were performed at room temperature except step 1, below. 100 μl of reagents were used per well for incubations and 200 μl of PBST for washings unless otherwise mentioned. In addition, shaking the plate can be helpful for incubations.
(§2) ELISA plates were coated with 100 μl GST-γ2III chain fragments at concentration of 1 μg/ml in 0.1 M carbonate/bicarbonate buffer, pH 9, o/n at +4° C. (100 ng/well). The coated plates were washed three times with PBST. Non-specific binding was blocked with BSA-PBS incubation for 90 minutes (200 μl/well). Dilutions of reference standards, negative controls (quality controls), and sample were diluted in BSA-PBS and thereafter incubated for 1 h at room temperature. The plates were again washed three times with PBST. HRP-conjugated anti-mouse IgG secondary antibody was added to the wells (diluted 1:5000 in PBS) and allowed to incubate for 30 minutes. The plates were washed again three times with PBST. ABTS-peroxidase substrate was added. Substrates were prepared immediately before use: ABTS-stock (10×) was diluted with Citrate buffer (see Example 1); 2 μl of 30% hydrogen […] was added to each well and mixed. Substrate was added to the wells and incubated in dark conditions for 30 minutes. Absorbance was read with a microtitre plate reader at 405 nm after 30 min and after 60 min.

The target in test [1] is T2, GST-γ2III-20 (a.a. residues 461-534) (human, UniProt Q13753 461-534).
T2 construct: Recombinant GST-γ2III-chain fragment, used in the second set of experiments only; also called GST-γIII-20; not shown: glutathione S-transferase (GST) fusion partner
T2 sequence: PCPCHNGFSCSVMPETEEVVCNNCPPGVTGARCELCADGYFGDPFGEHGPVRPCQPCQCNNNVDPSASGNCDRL
The test is described as above. The procedure:
as §1, §2

Test [2] concerns the target T3, cyclic peptide X256 (Ln-5 residues 539-552 + R) (human, disulfide 3-12 (inferred)).
T3 peptide: LKCIHNTAGIYCDQR
Briefly: direct ELISA on coated cyclic peptides. The procedure:
(§3) The identity of these peptides was verified by mass spectrometry. Solutions containing the five peptides, in an unpurified state, were individually subjected to direct ELISA analysis using standard techniques. Briefly, NUNC-IMMUNO plates were coated with 100 μl/well of 50 μg/ml peptide in carbonate buffer and allowed to sit overnight at +4° C. […] The plates were washed five times with PBS to remove unbound peptide and subjected to one hour blocking at room temperature by exposure with a washing/blocking buffer (0.05% Tween-20 in PBS (PBST)), which was thereafter removed. 100 ng of antibody (100 μl of solution containing an antibody solution at a concentration of 1 μg antibody/ml) for each of the three mAbs (4G1, 5D5, and 6C12) was added to the test wells. Dilution buffer was added to the control wells. The plates were incubated at room temperature for one hour, and thereafter washed four times in PBST.
(§4) 100 μl HRP-anti-mouse secondary Ab diluted in a dilution buffer at a ratio of 1:2000 was added to each well and the plates were incubated for one hour at room temperature, and thereafter washed 4 times with PBST. The plates were then developed with 100 μl TMB substrate for a period of 15-30 minutes in the dark (during which time the plates were monitored for color development). At an appropriate time, the reaction was stopped in each well with the addition of 4M H3PO4. Absorbance measurements were taken at 450 nm and 620 nm, ratios of absorbance determined, and the data evaluated. These experiments were performed in triplicate.
(In general: An ELISA detects its analyte on a solid surface through an enzyme-linked reagent.)

The target in test [3] is T4, cyclic peptide X254 (Ln-5 residues 494-516, +E) (human, Cys-Cys disulfide bond (cyclic peptide)).
T4 peptide: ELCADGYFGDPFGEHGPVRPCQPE
Put plainly: direct ELISA on coated cyclic peptides. The procedure: as §3, §4

In test [4] the target is T5, cyclic peptide X253 (Ln-5 residues 425-444) (human, Cys-Cys disulfide bond (cyclic peptide)).
T5 construct: Used unpurified
T5 peptide: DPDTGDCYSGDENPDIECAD
Put plainly: direct ELISA on coated cyclic peptides. The procedure:
as §3, §4

The target of test [5] is T6, cyclic peptide X255 (R+, Ln-5 residues 518-537) (human, Cys-Cys disulfide bond (cyclic peptide)).
T6 peptide: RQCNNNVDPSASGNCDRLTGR
Put plainly: direct ELISA on coated cyclic peptides. As for the experimental part: as §3, §4

In test [6] the target is T7, GST-γ2III fusion protein (glutathione S-transferase:γ2 DIII fragment fusion protein, human laminin γ2 amino … (human)).
T7 construct: also called GST-γ2DIII; GST-γ2 DIII
Put plainly: SPR (BIAcore, RAMFc chip, HBS-EP buffer), mAb against GST-γ2DIII fusion protein. The procedure: Resulting reflection/refractive index data obtained from these analyses (at 200 nM, 500 nM, 200 nM, 50 nM, and 20 nM) are presented individually in FIGS. 19A-19C.
(In general: In SPR one partner is held on a chip, and binding of the other changes the refractive index at the surface.)

In test [7] the target is T8, GST-γ2III-7 (a.a. residues 461-653) (human, UniProt Q13753 461-653).
T8 construct: Recombinant GST-γ2III-chain fragment; not shown: glutathione S-transferase (GST) fusion partner
T8 sequence: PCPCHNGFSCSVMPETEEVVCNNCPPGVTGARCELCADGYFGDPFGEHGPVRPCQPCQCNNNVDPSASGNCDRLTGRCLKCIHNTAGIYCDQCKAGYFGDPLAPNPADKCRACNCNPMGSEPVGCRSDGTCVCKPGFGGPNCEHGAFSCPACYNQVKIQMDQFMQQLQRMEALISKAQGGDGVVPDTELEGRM
Briefly: direct ELISA, fusion proteins coated at 100 ng/well, A405 (Example 3, first experiment). As for the experimental part: as §1
ELISA plates were coated with 100 μl GST-γ2III chain fragments at concentration of 1 μg/ml in 0.1 M carbonate/bicarbonate buffer, pH 9, o/n at +4° C. (100 ng/well). The coated plates were washed three times with PBST. Non-specific binding was blocked with BSA-PBS incubation for 90 minutes (200 μl/well). Dilutions of reference standards, negative controls (quality controls), and sample were diluted in BSA-PBS and thereafter incubated for 1 h at room temperature. The plates were again washed three times with PBST. […] Absorbance was read with a microtitre plate reader at 405 nm after 30 min and after 60 min.

For test [8], the target named is T9, cyclic peptide X252 (Ln-5 residues 394-415 + R) (human, Cys-Cys disulfide bond (cyclic peptide)).
T9 construct: Used unpurified
T9 peptide: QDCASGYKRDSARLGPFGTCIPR
Put plainly: direct ELISA, peptide coated at 50 µg/ml (controls 5 µg/ml), antibody 100 ng/well, A450/620, mean of three ± SD. As for the experimental part: as §3, with “The plates were incubated at room temperature for one hour, and thereafter washed four times in PBST.” left out
100 μl HRP-anti-mouse secondary Ab diluted in a dilution buffer at a ratio of 1:2000 was added to each well and the plates were incubated for one hour at room temperature, and thereafter washed 4 times with PBST. The plates were then developed with 100 μl TMB substrate for a period of 15-30 minutes in the dark (during which time the plates were monitored for color development). […] Absorbance measurements were taken at 450 nm and 620 nm, ratios of absorbance determined, and the data evaluated. […]

T7 sequence (chain, as listed by the source limits assumed): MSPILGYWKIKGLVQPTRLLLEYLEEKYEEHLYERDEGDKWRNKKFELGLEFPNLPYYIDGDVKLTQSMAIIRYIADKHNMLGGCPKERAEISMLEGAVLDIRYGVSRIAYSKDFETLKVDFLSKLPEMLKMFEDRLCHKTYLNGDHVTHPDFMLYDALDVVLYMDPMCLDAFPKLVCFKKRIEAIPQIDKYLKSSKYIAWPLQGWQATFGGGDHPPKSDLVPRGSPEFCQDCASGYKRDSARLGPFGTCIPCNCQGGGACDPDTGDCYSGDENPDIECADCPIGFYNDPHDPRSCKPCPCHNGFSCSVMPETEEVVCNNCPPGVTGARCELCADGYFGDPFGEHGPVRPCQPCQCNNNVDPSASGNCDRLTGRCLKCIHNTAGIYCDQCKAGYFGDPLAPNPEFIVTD
T1 sequence (P02769 25-607 limits assumed): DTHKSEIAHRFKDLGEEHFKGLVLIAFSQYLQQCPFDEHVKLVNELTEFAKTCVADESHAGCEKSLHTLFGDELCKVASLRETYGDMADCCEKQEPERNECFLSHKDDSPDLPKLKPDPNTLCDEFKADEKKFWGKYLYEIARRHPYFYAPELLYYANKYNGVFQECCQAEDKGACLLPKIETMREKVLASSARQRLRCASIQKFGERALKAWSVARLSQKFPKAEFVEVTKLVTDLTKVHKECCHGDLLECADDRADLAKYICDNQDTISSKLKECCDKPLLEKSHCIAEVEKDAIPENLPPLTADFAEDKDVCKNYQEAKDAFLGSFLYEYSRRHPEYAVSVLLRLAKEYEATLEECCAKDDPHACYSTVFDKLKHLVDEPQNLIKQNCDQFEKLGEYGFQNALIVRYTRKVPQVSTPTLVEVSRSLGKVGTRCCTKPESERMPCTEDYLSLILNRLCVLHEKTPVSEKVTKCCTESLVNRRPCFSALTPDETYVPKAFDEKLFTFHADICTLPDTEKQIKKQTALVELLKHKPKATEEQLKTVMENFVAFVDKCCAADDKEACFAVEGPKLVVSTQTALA

B1: mAb 4G1 (antibody, V domains shown)
VH: EVKLEESGGGLVQPGGSMKLSCVASGFTFSNFWMNWVRQSPEKGLEWVAEIRLKSNNYATHYAESLKGRFTISRDDSKSNVYLQMNNLRPEDTGIYYCTRDYYGSSFAYWGQGTLVTVSA
VL: DIVMTQAAFSNPVTLGTSASISCRSSKSLLHNIGITYLFWYLQKPGQSPQLLIYQMSKLASGVPDRFSGSGSGTDFTLRISRVEAEDVGIYYCAQNLELPPTFGSGTKLEIK
notes: Murine anti-γ2 DIII monoclonal antibody from hybridoma 4G1 (available from DAKO Cytomation); Biotinylated in some ELISAs; also called monoclonal antibody 4G1; γ2 DIII mAb 4G1
With B1, the binding result (in the test with BSA; in [1]; in [2]; in test [3]; in test [4]; in test [5]) was “no binding” each time. Further, the binding result in [7] is “no binding”. Besides, the dissociation constant Kd in test [6] stood at 11.4 nM. Also, the off-rate (koff) in [6] is 0.000106 s⁻¹. The molecule further yielded a kon in [6] of 9280 M⁻¹ s⁻¹.

B2: mAb 6C12 (antibody, V domains shown)
VH: DVHLQESGPGLVKPSQSLSLTCTVTGYSITSDYAWNWIRQFPGNRLEWMGYITYSGGTNYNPSLKSRISFTRDTSKNQFFLQLNSVTTEDTATYYCANNFYGNFFDYWGQGTTLTVSS
VL: QIVLTQSPAIMSASPGEKVTMTCSASSSVSYIHWYQQKSGTSPKRWIYDTSKLASGVPARFSGSGSGTSYSLTISSMQAEDAATYYCQQWSSSPPTFGGGTKLEIK
notes: Murine anti-γ2 DIII monoclonal antibody from hybridoma 6C12, deposited at DSMZ as DSM ACC2653; Biotinylated in some ELISAs; also called monoclonal antibody 6C12; DSM ACC2653
In the case of B2, in the test with BSA, the binding result was “no binding”. For the same molecule, the binding result in [8] was “no binding (tested: 1 µg/ml)”. In [6], this molecule gave a Kd of 23.3 nM, a koff of 0.000387 s⁻¹ and an association rate constant (kon) of 16600 M⁻¹ s⁻¹.
